Data as given in patent publication US20220396612A1 (UNIVERSIT DE TOURS, published 2022).

T1: virus-like particles (VLPs) of BK polyomavirus VP-1 protein, serotype Ib2 (BK virus (BKPyV), serotype Ib2, PA …, UniProt P03088 1-362)
T1 construct: native VLPs; also the immunogen; also called VLP Ib2; BK Ib2
T1 chain: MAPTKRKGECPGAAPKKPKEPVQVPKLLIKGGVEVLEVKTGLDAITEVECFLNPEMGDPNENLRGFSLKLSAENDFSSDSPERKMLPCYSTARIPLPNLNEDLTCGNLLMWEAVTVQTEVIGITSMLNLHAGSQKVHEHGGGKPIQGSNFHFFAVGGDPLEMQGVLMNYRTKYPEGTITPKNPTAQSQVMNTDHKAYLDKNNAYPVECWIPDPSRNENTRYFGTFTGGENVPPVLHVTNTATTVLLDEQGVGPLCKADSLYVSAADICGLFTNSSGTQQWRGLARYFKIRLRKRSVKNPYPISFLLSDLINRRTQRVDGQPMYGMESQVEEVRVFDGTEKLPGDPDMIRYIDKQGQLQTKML

T2: virus-like particles (VLPs) of BK polyomavirus VP-1 protein, serotype IV (BK virus (BKPyV), serotype IV, UniProt P14996 1-362)
T2 construct: native VLPs; also called VLP IV
T2 chain: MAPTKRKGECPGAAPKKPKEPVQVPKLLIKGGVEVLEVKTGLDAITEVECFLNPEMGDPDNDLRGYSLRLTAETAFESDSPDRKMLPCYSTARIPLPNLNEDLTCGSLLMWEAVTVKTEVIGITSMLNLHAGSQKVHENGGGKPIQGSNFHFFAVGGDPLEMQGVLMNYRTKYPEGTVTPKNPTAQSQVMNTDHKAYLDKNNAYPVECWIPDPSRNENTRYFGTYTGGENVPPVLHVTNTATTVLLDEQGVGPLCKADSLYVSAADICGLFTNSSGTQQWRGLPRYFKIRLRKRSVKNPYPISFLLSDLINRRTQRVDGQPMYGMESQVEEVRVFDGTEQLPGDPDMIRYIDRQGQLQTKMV

T3: virus-like particles (VLPs) of BK polyomavirus VP-1 protein, serotype II (BK virus (BKPyV), serotype II, UniProt P14996 1-362)
T3 construct: native VLPs; also called VLP II
T3 chain: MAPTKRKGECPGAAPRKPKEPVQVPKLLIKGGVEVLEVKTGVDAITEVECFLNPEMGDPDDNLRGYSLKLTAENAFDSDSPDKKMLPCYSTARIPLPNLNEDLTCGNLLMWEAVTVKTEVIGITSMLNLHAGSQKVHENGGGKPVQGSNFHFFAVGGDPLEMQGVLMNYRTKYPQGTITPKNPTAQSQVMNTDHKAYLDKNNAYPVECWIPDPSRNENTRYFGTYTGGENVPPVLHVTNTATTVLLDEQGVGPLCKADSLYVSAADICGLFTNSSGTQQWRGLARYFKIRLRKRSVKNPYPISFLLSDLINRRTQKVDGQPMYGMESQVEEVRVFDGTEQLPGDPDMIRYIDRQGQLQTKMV

T4: virus-like particles (VLPs) of BK polyomavirus VP-1 protein, serotype Ia (BK virus (BKPyV), serotype Ia, UniProt P03088 1-361)
T4 construct: self-assembled native VLPs coated on ELISA plates; also called VLP Ia; BKV VP-1, serotype Ia
T4 chain: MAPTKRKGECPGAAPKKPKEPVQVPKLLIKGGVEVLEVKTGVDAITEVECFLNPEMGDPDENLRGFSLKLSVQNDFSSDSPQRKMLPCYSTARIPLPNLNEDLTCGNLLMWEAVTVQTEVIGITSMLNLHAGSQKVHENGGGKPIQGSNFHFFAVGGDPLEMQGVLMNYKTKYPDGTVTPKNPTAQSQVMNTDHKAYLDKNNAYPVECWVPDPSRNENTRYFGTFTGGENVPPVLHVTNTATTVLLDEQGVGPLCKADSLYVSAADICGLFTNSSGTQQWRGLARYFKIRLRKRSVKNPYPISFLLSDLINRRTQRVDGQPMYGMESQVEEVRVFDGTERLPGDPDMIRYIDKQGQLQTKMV

T5: virus-like particles (VLPs) of BK polyomavirus VP-1 protein, serotype III (BK virus (BKPyV), serotype III, UniProt P14996 1-362)
T5 construct: native VLPs; also called VLP III
T5 chain: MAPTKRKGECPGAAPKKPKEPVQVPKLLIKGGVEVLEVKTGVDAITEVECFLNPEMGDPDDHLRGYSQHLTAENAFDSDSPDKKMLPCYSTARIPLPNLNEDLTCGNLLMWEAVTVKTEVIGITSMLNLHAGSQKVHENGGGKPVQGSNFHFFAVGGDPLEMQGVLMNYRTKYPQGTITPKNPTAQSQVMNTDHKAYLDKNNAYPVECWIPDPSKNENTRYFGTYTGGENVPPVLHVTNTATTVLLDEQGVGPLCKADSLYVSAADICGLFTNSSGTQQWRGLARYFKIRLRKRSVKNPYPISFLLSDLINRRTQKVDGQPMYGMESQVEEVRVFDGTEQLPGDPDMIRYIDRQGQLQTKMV


Legend:
[1] = molecular target: T1, virus-like particles (VLPs) of BK …; assay: ELISA on coated VLP (detection limit OD>0.5)
Method: (§1) To do this, the VLPs produced were deposited at a concentration of 1 μg/mL in PBS and incubated overnight at +4° C. The wells were then blocked for 1 h at +37° C. with a PBS/FCS (phosphate-buffered saline/fetal calf serum) mixture. After dilution in a dilution buffer containing FCS, PBS and Tween® 20, the various hybridoma culture supernatants were added for 1 h at +37° C. The wells were washed four times in a row with Wash Buffer and a secondary anti-mouse antibody coupled to peroxidase was added to the 1:2000 dilution for 1 h at +37° C. The wells were washed four more times and the substrate (OPD (ortho phenylene diamine)+H₂O₂) was added for 30 min at room temperature. A stop solution (H₂SO₄ 4N) was then added and each well was read by measuring the absorbance at 492 nm with a spectrophotometer. The value obtained for the average of the control wells (PBS in the first step) is subtracted from the optical density values obtained for each well.

[2] = molecular target: T6, virus-like particles (VLPs) of JC polyomavirus VP-1 protein (JC virus (JCPyV), UniProt P03089 1-354, Assembled into virus-like particles (many VP-1 copies); the letters give one VP-1 chain.); assay: ELISA on coated VLP (detection limit OD>0.5)
T6 construct: Expressed in insect cells by baculovirus; VLPs coated on ELISA plates; also called JCPyV VLPs; JCPyV
T6 sequence (P03089 whole entry): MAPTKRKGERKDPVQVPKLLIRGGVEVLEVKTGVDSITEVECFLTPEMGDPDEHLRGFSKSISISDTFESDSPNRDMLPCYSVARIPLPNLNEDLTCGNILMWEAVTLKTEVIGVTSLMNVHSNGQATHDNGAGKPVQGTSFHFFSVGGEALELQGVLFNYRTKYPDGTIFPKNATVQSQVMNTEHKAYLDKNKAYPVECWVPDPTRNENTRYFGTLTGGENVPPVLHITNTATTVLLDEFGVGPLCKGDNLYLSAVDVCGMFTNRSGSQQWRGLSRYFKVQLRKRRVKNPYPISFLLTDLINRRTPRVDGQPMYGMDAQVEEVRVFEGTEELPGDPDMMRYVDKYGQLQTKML
Method: as §1

[3] = molecular target: T1, virus-like particles (VLPs) of BK …; assay: ELISA on coated VLP; supernatant 1/160
Method: as §1

[4] = molecular target: T2, virus-like particles (VLPs) of BK …; assay: ELISA on coated VLP; supernatant 1/160
Method: as §1

[5] = molecular target: T1, virus-like particles (VLPs) of BK …; assay: ELISA on coated VLP;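 also: hybridoma culture supernatants (mouse antibodies) tested on wells coated with 1 µg/mL VLPs, peroxidase anti-mouse detection with OPD, background from PBS-coated control wells subtracted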
Method: as §1

[6] = molecular target: T3, virus-like particles (VLPs) of BK …; assay: ELISA on coated VLP;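 also: hybridoma culture supernatants (mouse antibodies) tested on wells coated with 1 µg/mL VLPs, peroxidase anti-mouse detection with OPD, background from PBS-coated control wells subtracted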
Method: as §1

[7] = molecular target: T2, virus-like particles (VLPs) of BK …; assay: ELISA on coated VLP;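 also: hybridoma culture supernatants (mouse antibodies) tested on wells coated with 1 µg/mL VLPs, peroxidase anti-mouse detection with OPD, background from PBS-coated control wells subtracted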
Method: as §1

[8] = molecular target: T4, virus-like particles (VLPs) of BK …; assay: ELISA on coated VLP;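 also: hybridoma culture supernatants (mouse antibodies) tested on wells coated with 1 µg/mL VLPs, peroxidase anti-mouse detection with OPD, background from PBS-coated control wells subtracted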
Method: as §1

[9] = molecular target: T5, virus-like particles (VLPs) of BK …; assay: ELISA on coated VLP
Method: as §1

[10] = molecular target: T6, virus-like particles (VLPs) of JC …; assay: ELISA on coated JCPyV VLPs

Row | Binder | OD 492 nm [1] [OD] | OD 492 nm [2] [OD] | OD 492 nm [3] [OD] | OD 492 nm [4] [OD] | OD 492 nm [5] [OD] | OD 492 nm [6] [OD] | OD 492 nm [7] [OD] | OD 492 nm [8] [OD] | OD 492 nm [9] [OD] | binding result [10]
1 | monoclonal antibody ‘H6’ secreted by clone BK6A2H6 (antibody, V domains shown) VH: EVQLQQSGPELVKPGASVKISCKASGYSFTGYFMNWVKQSHGKSLEWIGRINPYNGDTFYNQKFKGKATLTVDKSSSTAHMELLSLTSEDSAVYYCGSYYYGDYFDYWGQGTTLTVSS VL: SIVMTQIPKFLLVSEGDRVTITCKASQSVSNDVAWYQQKSGQSPKLLIYYASNRYTGVPDRFTGSGYGTDFTFTISTVQAEDLAVYFCQQDYSSPLTFGAGTKLELKR | 2.97 | 0.013 | 0.4 | 3.14 | 3.19 | 0.86 | 3.21 | 3.06 | 0.481 | no binding (tested: detection limit: OD>0.5)
2 | monoclonal antibody ‘F6’ secreted by clone BK6A2F6 (antibody) heavy: EVQLQQSGPELVKPGASVKISCKASGYSFTGYFMNWVKQSHGKSLEWIGRINPYNGDTFYNQKFKGKATLTVDKSSSTAHMELLSLTSEDSAVYYCGSYYYGDYFDYWGQGTTLTVSSAKTTPPSVYPLAPGSAAQTNSMVTLGCLVKGYFPEPVTVTWNSGSLSSGVHTFPAVLQSDLYTLSSSVTVPSSTWPSETVTCNVAHPASSTKVDKKIVPRDCGCKPCICTVPEVSSVFIFPPKPKDVLTITLTPKVTCVVVDISKDDPEVQFSWFVDDVEVHTAQTQPREEQFNSTFRSVSELPIMHQDWLNGKEFKCRVNSAAFPAPIEKTISKTKGRPKAPQVYTIPPPKEQMAKDKVSLTCMITDFFPEDITVEWQWNGQPAENYKNTQPIMDTDGSYFVYSKLNVQKSNWEAGNTFTCSVLHEGLHNHHTEKSLSHSPGK light: […] | 3 | 0.028 | 0.4 | 3.46 | 2.89 | 1.65 | 3.16 | 3.23 | 0.42 | no binding (tested: detection limit: OD>0.5)
3 | monoclonal antibody ‘18A2’ derived from hybridoma 18A2 (antibody, V domains shown, Mouse hybridoma antibody) VH: DVQLQESGPGLVKPSQSLSLTCSVTGYSITSGYYWNWIRQFPGNKLEWMGYISYDGSNNYNPSLKNRISITRDTSKNQFFLKLNSVTTEDTATYYCARWEGTTDYWGQGTTLTVSS VL: not shown | 0.565 | 0.116 |  |  | 3.02 | 1.05 | 1.22 | 2.22 | 0.763 | no binding (tested: detection limit: OD>0.5)
